Results taken from the supplement of paper PMC10567573.

B1: ZNF449 (parent)
chain: RIHSGEEPHKCPECGKRFLRSSDL
B2: DCAF4 (parent)
chain: TTKCVRQYEGHVNEYAYLPLHVHE

Variants of: B1
Test: protein stability index of a GFP-peptide fusion (GPS, HEK-293T) (PSI 1-6); higher = more stable
Settings: c terminus: a fixed tail appended
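Note: lentivirally expressed fusions sorted by FACS into six bins by GFP to DsRed ratio, PSI derived from sequencing read proportions per bin multiplied by bin number.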

Variant | protein stability index
L24W | 2.93
L24T | 3.79
L24S | 3.88
L24Y | 3.29
L24Q | 4.91
L24M | 3.41
L24E | 4.42
L24D | 4.61
L24F | 3.3
L24V | 3.31
L24I | 2.5
L24G | 3.82
L24C | 3.63
L24N | 3.89
L24R | 2.29
L24P | 4.12
L24K | 3.96
L24H | 3.63
L24A | 3.92
E13N | 3.43
E13M | 2.92
E13V | 3.44
E13K | 2.72
E13P | 3.6

Variant | protein stability index
E13R | 2.84
E13T | 3.41
E13Q | 2.13
E13S | 3.63
E13Y | 3.54
E13L | 3.38
E13W | 3.86
L19T | 3.65
L19E | 4.32
L19D | 3.88
L19S | 4.05
L19I | 2.76
L19V | 3.32
L19N | 3.27
L19W | 3.09
L19M | 4.05
L19H | 3.41
L19A | 3.96
L19P | 3.54
L19G | 4.31
L19R | 3.74
L19F | 3.26
L19Q | 4.41
L19C | 4.48

Variant | protein stability index
L19K | 4.04
L19Y | 3.23
S22K | 2.57
S22C | 3.94
S22W | 1.94
S22M | 2.28
S22R | 3.02
S22E | 3.62
S22T | 3.05
S22P | 3.5
S22A | 2.93
S22N | 3.3
S22L | 2.67
S22H | 3.56
S22I | 2.77
S22V | 3.58
S22F | 2.77
S22G | 3.74
S22Y | 3.01
S22D | 4.06
F18N | 4.68
F18C | 4.15
F18R | 3.33
F18I | 3.22

Variant | protein stability index
F18M | 3.32
F18L | 2.86
F18Y | 3.87
F18T | 3.75
F18K | 4.33
F18D | 4.4
F18S | 3.29
F18E | 4.56
F18V | 2.92
F18P | 3.83
F18A | 5.36
F18Q | 3.58
F18W | 3.5
C14Y | 3.6
C14Q | 4.96
C14M | 4.21
C14T | 4.69
C14L | 3.79
C14P | 4.06
C14W | 4.39
C14S | 4.77
C14N | 4.3
C14D | 4.58
C14H | 3.95

Variant | protein stability index
C14V | 4.21
C14G | 4.65
C14K | 3.87
C14I | 5
C14F | 3.47
C14A | 4.26
C14E | 5.1
C14R | 4.32
S21I | 3.04
S21R | 2.65
S21Q | 2.75
S21F | 2.15
S21L | 2.48
S21N | 3.56
S21D | 4.25
S21H | 3.44
S21Y | 3.22
S21G | 3.75
S21C | 3.69
S21A | 3.31
S21M | 2.24
S21K | 4.17
S21P | 2.86
S21T | 3.56

Variant | protein stability index
R20V | 2.27
R20N | 4.21
R20Q | 4.3
R20D | 3.47
R20I | 2.91
R20C | 3.88
R20H | 2.89
R20W | 2.31
R20Y | 2.86
R20K | 3.25
R20L | 3.32
R20P | 3.99
R20T | 3.17
R20E | 3.91
R20F | 3.35
R20M | 3.41
R20A | 4.09
R20S | 3.82
R17Y | 3.58
R17W | 3.97
R17T | 3.97
R17G | 3.12
R17H | 4.23
R17N | 3.4

Variant | protein stability index
R17L | 3.08
R17F | 3.2
R17S | 4
R17M | 3.59
R17A | 3.61
R17I | 3.72
R17Q | 3.63
R17P | 3.66
R17E | 4.2
R17K | 4.13
R17C | 3.74
R17V | 3.17
R17D | 3.71
D23A | 2.23
D23Y | 1.72
D23E | 2.52
D23S | 2.46
D23P | 2.29
D23L | 2.16
D23V | 1.73
D23N | 2.8
D23H | 3.41
D23I | 1.61
D23Q | 1.86

Variant | protein stability index
D23K | 2.77
D23R | 1.51
D23T | 2.7
D23F | 2.04
D23C | 2.75
K16P | 3.82
K16G | 3.13
K16S | 3.68
K16T | 3.68
K16N | 3.58
K16I | 2.93
K16Y | 3.77
K16F | 2.55
K16L | 2.78
K16Q | 3.66
K16C | 3.32
K16D | 4.41
K16R | 3.9
K16H | 3.19
K16E | 3.99
K16M | 2.61
K16V | 2.37
K16W | 2.69
G15K | 3.63

Variant | protein stability index
G15M | 3.88
G15S | 3.76
G15L | 3.58
G15C | 3.28
G15A | 3.9
G15Q | 3.85
G15T | 3.89
G15W | 2.87
G15F | 3.48
G15I | 3.6
G15P | 4.37
G15Y | 3.44
G15H | 2.87
G15V | 3.25
G15D | 3.27
G15N | 3.52
G15E | 4.24

Variants of: B2
Test: as above
Settings: c terminus: a fixed tail appended

Variant | protein stability index
R6D | 2.87
R6P | 2.26
R6C | 2.53
R6E | 3.12
R6S | 2.01
R6I | 2.11
R6Q | 3.31
R6W | 1.73
R6T | 2.49
R6K | 2.63
R6L | 2.18
R6N | 2.95
R6M | 2.38
R6Y | 2.4
R6V | 2.1
R6G | 2.58
R6F | 1.8
R6H | 2.52
R6A | 3.02
V5M | 2.18
V5S | 1.82
V5R | 1.76
V5D | 3.34
V5H | 2.19
V5A | 2.67

Variant | protein stability index
V5K | 1.99
V5G | 2.31
V5C | 2
V5E | 3.29
V5Y | 1.82
V5P | 2.95
V5T | 2.69
V5N | 2.27
V5I | 2.17
V5Q | 2.55
V5W | 2.46
V5L | 2.84
V5F | 2.24
C4M | 3.45
C4P | 3.1
C4F | 2.25
C4S | 3.25
C4V | 3.08
C4Y | 2.48
C4I | 3.13
C4E | 3.59
C4K | 2.83
C4Q | 2.94
C4N | 3.48
C4L | 2.86

Variant | protein stability index
C4D | 3.76
C4T | 3.42
C4H | 3.19
C4R | 2.69
C4A | 3.14
C4G | 2.67
C4W | 2.29
Q7A | 2.52
Q7D | 2.8
Q7M | 2.19
Q7H | 2.64
Q7E | 2.96
Q7G | 2.13
Q7I | 2.17
Q7F | 1.87
Q7C | 2.15
Q7K | 2.77
Q7L | 2.28
K3T | 2.71
K3F | 1.55
K3S | 2.71
K3W | 1.82
K3L | 2.6
K3N | 2.98
K3D | 3.56

Variant | protein stability index
K3A | 3.11
K3R | 2.12
K3Y | 1.6
K3I | 1.73
K3H | 2.71
K3G | 2.89
K3M | 2.07
K3P | 3.58
K3E | 3.58
K3Q | 3.25
K3C | 2.62
K3V | 2.02
T1M | 2.19
T1R | 2.22
T1F | 1.74
T1Q | 2.74
T1P | 2.48
T1D | 3.45
T1S | 3.81
T1E | 3.14
T1V | 2.22
T1L | 2.99
T1A | 2.67
T1I | 2
T1Y | 1.69

Variant | protein stability index
T1G | 2.99
T1C | 1.9
T1H | 2.65
T1N | 2.4
T1W | 1.92
T1K | 2.84
T2M | 2.52
T2R | 2.41
T2Y | 2.01
T2I | 2.19
T2N | 2.99
T2G | 2.69
T2A | 2.47
T2Q | 2.41
T2K | 2.64
T2V | 2.46
T2H | 2.32
T2D | 3.24
T2W | 2.43
T2L | 2.15
T2S | 2.74
T2E | 3.23
T2C | 2.43
T2P | 3.05
T2F | 2.47
